This is an account of results in the supplement of paper PMC9112550, “Optimization of the antimicrobial peptide Bac7 by deep mutational scanning” (BMC Biology, 2022).

For this series, the system named is Escherichia coli TOP10. The experiment in a line: shrunken log2 fold change of peptide-encoding DNA abundance (4.5 h post-induction vs induction); higher = less antimicrobial activity (less host growth inhibition). As to conditions: time post-induction: 4.5 h; library: site-saturation at positions 5, 18, 19, 20.
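Note: peptides expressed intracellularly from a pBAD plasmid library in pooled LB shake-flask culture, induced with 0.3% L-arabinose, DNA abundance read by NGS, three biological replicates, DESeq2 with apeglm shrinkage.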

For RRIRFRPPRLPRPRPRPSIFPRP, the “shrunken log2 fold change” value was -0.579. Next, RRIRIRPPRLPRPRPRPPRGPRP: 0.534. For RRIRHRPPRLPRPRPRPMCHPRP, the “shrunken log2 fold change” value is -0.00674.

Regarding RRIRRRPPRLPRPRPRPNNIPRP, the “shrunken log2 fold change” value was -0.556. With RRIRQRPPRLPRPRPRPWCCPRP, the “shrunken log2 fold change” value is 0.0636. Next, RRIRRRPPRLPRPRPRPENWPRP: 0.153; RRIRWRPPRLPRPRPRPIPTPRP: -0.0487; RRIRYRPPRLPRPRPRPWLYPRP: -0.613. Turning to RRIRHRPPRLPRPRPRPYQTPRP, the “shrunken log2 fold change” value is -0.112. As for RRIRVRPPRLPRPRPRPGGEPRP, the “shrunken log2 fold change” value is 0.386. Turning to RRIRTRPPRLPRPRPRPEFLPRP, the “shrunken log2 fold change” value is -0.536. Regarding RRIRLRPPRLPRPRPRPTWLPRP, the “shrunken log2 fold change” value was found to be 0.584.

In the case of RRIRVRPPRLPRPRPRPDGTPRP, the “shrunken log2 fold change” value is -0.161. Next, RRIRFRPPRLPRPRPRPGMSPRP: 0.0155; RRIRERPPRLPRPRPRPFYLPRP: -0.648. Turning to RRIRQRPPRLPRPRPRPSESPRP, the “shrunken log2 fold change” value was -0.0923. With RRIRWRPPRLPRPRPRPQHAPRP, the “shrunken log2 fold change” value was -0.0577. Turning to RRIRPRPPRLPRPRPRPHGSPRP, the “shrunken log2 fold change” value is 0.063.

RRIRMRPPRLPRPRPRPTWCPRP: the “shrunken log2 fold change” value is -0.0681. Take RRIRGRPPRLPRPRPRPCLAPRP: the “shrunken log2 fold change” value was 0.599. As for RRIRWRPPRLPRPRPRPVNLPRP, the “shrunken log2 fold change” value is -0.291. For RRIRLRPPRLPRPRPRPATWPRP, the “shrunken log2 fold change” value was -0.125. Next, RRIRSRPPRLPRPRPRPHYQPRP: -0.357.

Consider RRIRDRPPRLPRPRPRPWCVPRP, for which the “shrunken log2 fold change” value was 0.083. RRIRSRPPRLPRPRPRPLRMPRP: the “shrunken log2 fold change” value worked out at 0.0358. As for RRIRWRPPRLPRPRPRPRMTPRP, the “shrunken log2 fold change” value was determined as 0.394.

With RRIRFRPPRLPRPRPRPSVHPRP, the “shrunken log2 fold change” value was -0.233.

RRIRQRPPRLPRPRPRPTWQPRP: the “shrunken log2 fold change” value worked out at 0.186.

Turning to RRIRRRPPRLPRPRPRPMVEPRP, the “shrunken log2 fold change” value is -0.257. In the case of RRIRVRPPRLPRPRPRPLMAPRP, the “shrunken log2 fold change” value is 0.049. Next, RRIRQRPPRLPRPRPRPHSFPRP: -0.00144; RRIRFRPPRLPRPRPRPKPSPRP: 0.462; RRIRLRPPRLPRPRPRPEQSPRP: -0.0314.

As to RRIRERPPRLPRPRPRPYWAPRP, the “shrunken log2 fold change” value is -0.888. In the case of RRIRARPPRLPRPRPRPSLWPRP, the “shrunken log2 fold change” value amounted to 0.974. To RRIRPRPPRLPRPRPRPERYPRP belongs 0.378. With RRIRYRPPRLPRPRPRPADGPRP, the “shrunken log2 fold change” value is 0.143. In the case of RRIRWRPPRLPRPRPRPQKRPRP, the “shrunken log2 fold change” value was found to be 0.00899.

On to RRIRPRPPRLPRPRPRPWMVPRP, for which the “shrunken log2 fold change” value is 0.0262.

As to RRIRQRPPRLPRPRPRPLKWPRP, the “shrunken log2 fold change” value stood at 0.0646.

With RRIRHRPPRLPRPRPRPRRYPRP, the “shrunken log2 fold change” value was 0.0129. To RRIRPRPPRLPRPRPRPKDTPRP belongs -0.173; to RRIRYRPPRLPRPRPRPQLYPRP, -0.206; to RRIRARPPRLPRPRPRPQTKPRP, 0.135. As to RRIRLRPPRLPRPRPRPRSPPRP, the “shrunken log2 fold change” value is 0.803. On to RRIRDRPPRLPRPRPRPGTRPRP, for which the “shrunken log2 fold change” value was found to be 0.118. On to RRIRKRPPRLPRPRPRPHWVPRP, for which the “shrunken log2 fold change” value was -0.0562. RRIRRRPPRLPRPRPRPSGPPRP: the “shrunken log2 fold change” value is -0.0409.

Take RRIRCRPPRLPRPRPRPENCPRP: the “shrunken log2 fold change” value is 0.0153.

As to RRIRARPPRLPRPRPRPADKPRP, the “shrunken log2 fold change” value came out at 0.197.

On to RRIRDRPPRLPRPRPRPEVMPRP, for which the “shrunken log2 fold change” value was found to be 0.152.

As for RRIRDRPPRLPRPRPRPVLNPRP, the “shrunken log2 fold change” value was -0.165. Regarding RRIRARPPRLPRPRPRPSDAPRP, the “shrunken log2 fold change” value turned out to be 0.396. Next, RRIRSRPPRLPRPRPRPVEWPRP: 0.31; RRIRERPPRLPRPRPRPFRAPRP: 0.0204.

Take RRIRQRPPRLPRPRPRPASRPRP: the “shrunken log2 fold change” value is -0.124.

Regarding RRIRQRPPRLPRPRPRPIHAPRP, the “shrunken log2 fold change” value is -0.0062. In the case of RRIRGRPPRLPRPRPRPPYRPRP, the “shrunken log2 fold change” value turned out to be 0.388. Consider RRIRVRPPRLPRPRPRPLGQPRP, for which the “shrunken log2 fold change” value came out at 0.131.

With RRIRPRPPRLPRPRPRPAKFPRP, the “shrunken log2 fold change” value amounted to 0.0407.

Take RRIRKRPPRLPRPRPRPGYFPRP: the “shrunken log2 fold change” value was -0.0741. As for RRIRNRPPRLPRPRPRPCEHPRP, the “shrunken log2 fold change” value is -0.162. For RRIRLRPPRLPRPRPRPHALPRP, the “shrunken log2 fold change” value was -0.396.

With RRIRGRPPRLPRPRPRPGGMPRP, the “shrunken log2 fold change” value came out at 0.662. RRIRRRPPRLPRPRPRPHLTPRP: the “shrunken log2 fold change” value is -0.132. As for RRIRKRPPRLPRPRPRPYALPRP, the “shrunken log2 fold change” value is -0.119.

With RRIRRRPPRLPRPRPRPLQPPRP, the “shrunken log2 fold change” value came out at 0.873. RRIRCRPPRLPRPRPRPLTVPRP: the “shrunken log2 fold change” value is -0.483.

RRIRSRPPRLPRPRPRPHIHPRP: the “shrunken log2 fold change” value worked out at 0.966. Turning to RRIRQRPPRLPRPRPRPCLHPRP, the “shrunken log2 fold change” value is -0.0247. Regarding RRIRWRPPRLPRPRPRPTSEPRP, the “shrunken log2 fold change” value worked out at 0.116. RRIRFRPPRLPRPRPRPQSDPRP: the “shrunken log2 fold change” value was determined as 0.0151. To RRIRIRPPRLPRPRPRPNINPRP belongs -0.918; to RRIRWRPPRLPRPRPRPPMSPRP, 0.095. RRIRYRPPRLPRPRPRPLCYPRP: the “shrunken log2 fold change” value is -1.

For the sequence RRIRRRPPRLPRPRPRPAHVPRP, the “shrunken log2 fold change” value came to 0.0907. As to RRIRTRPPRLPRPRPRPLLMPRP, the “shrunken log2 fold change” value is -0.278.

Regarding RRIRRRPPRLPRPRPRPTEIPRP, the “shrunken log2 fold change” value came to 0.299. As to RRIRHRPPRLPRPRPRPTHMPRP, the “shrunken log2 fold change” value is -0.065. Regarding RRIRTRPPRLPRPRPRPGLDPRP, the “shrunken log2 fold change” value came to 0.0222. Take RRIRTRPPRLPRPRPRPGLEPRP: the “shrunken log2 fold change” value was determined as 0.198.

With RRIRTRPPRLPRPRPRPARGPRP, the “shrunken log2 fold change” value worked out at 0.407.

Turning to RRIRHRPPRLPRPRPRPPKWPRP, the “shrunken log2 fold change” value is 0.345.

Take RRIRGRPPRLPRPRPRPIIVPRP: the “shrunken log2 fold change” value is -0.043. As for RRIRCRPPRLPRPRPRPAFRPRP, the “shrunken log2 fold change” value is 0.25. Take RRIRQRPPRLPRPRPRPILKPRP: the “shrunken log2 fold change” value was 0.14. RRIRGRPPRLPRPRPRPNGPPRP: the “shrunken log2 fold change” value is -0.0411. With RRIRARPPRLPRPRPRPDEYPRP, the “shrunken log2 fold change” value was -0.0116. Consider RRIRGRPPRLPRPRPRPHDCPRP, for which the “shrunken log2 fold change” value was 0.0253. For the sequence RRIRTRPPRLPRPRPRPDNQPRP, the “shrunken log2 fold change” value is -0.337. RRIRCRPPRLPRPRPRPYTDPRP: the “shrunken log2 fold change” value was -0.431. In the case of RRIRYRPPRLPRPRPRPLVTPRP, the “shrunken log2 fold change” value is -0.616. With RRIRARPPRLPRPRPRPYDLPRP, the “shrunken log2 fold change” value stood at 0.0526. Turning to RRIRKRPPRLPRPRPRPKGDPRP, the “shrunken log2 fold change” value is -0.0351. For the sequence RRIRSRPPRLPRPRPRPTSHPRP, the “shrunken log2 fold change” value is -0.0965. RRIRGRPPRLPRPRPRPAHSPRP: the “shrunken log2 fold change” value is 0.0755. Next, RRIRWRPPRLPRPRPRPRDPPRP: 0.241; RRIRLRPPRLPRPRPRPDMWPRP: -0.0873. For the sequence RRIRGRPPRLPRPRPRPYFAPRP, the “shrunken log2 fold change” value worked out at 0.357. Next, RRIRTRPPRLPRPRPRPHIHPRP: -0.102. RRIRDRPPRLPRPRPRPRLSPRP: the “shrunken log2 fold change” value turned out to be 0.286. Regarding RRIRYRPPRLPRPRPRPGKYPRP, the “shrunken log2 fold change” value was -0.466. In the case of RRIRQRPPRLPRPRPRPMGMPRP, the “shrunken log2 fold change” value worked out at 0.0187. Turning to RRIRMRPPRLPRPRPRPHMDPRP, the “shrunken log2 fold change” value is -0.604. Next, RRIRGRPPRLPRPRPRPPNRPRP: 0.427; RRIRDRPPRLPRPRPRPTIMPRP: -0.347; RRIRWRPPRLPRPRPRPNTWPRP: 0.245. In the case of RRIRRRPPRLPRPRPRPQCSPRP, the “shrunken log2 fold change” value amounted to 0.109. For RRIRIRPPRLPRPRPRPDDTPRP, the “shrunken log2 fold change” value was -0.131. As for RRIRVRPPRLPRPRPRPTPKPRP, the “shrunken log2 fold change” value is 0.297. In the case of RRIRERPPRLPRPRPRPENTPRP, the “shrunken log2 fold change” value is -0.354.

Regarding RRIRSRPPRLPRPRPRPHSAPRP, the “shrunken log2 fold change” value is -0.891. Consider RRIRVRPPRLPRPRPRPNFSPRP, for which the “shrunken log2 fold change” value was -0.153.

With RRIRVRPPRLPRPRPRPCQRPRP, the “shrunken log2 fold change” value is 0.0972. RRIRYRPPRLPRPRPRPTFNPRP: the “shrunken log2 fold change” value was -0.73. With RRIRRRPPRLPRPRPRPQWWPRP, the “shrunken log2 fold change” value is 0.297.

As for RRIRPRPPRLPRPRPRPMNSPRP, the “shrunken log2 fold change” value was -0.125. To RRIRYRPPRLPRPRPRPPAYPRP belongs -0.767; to RRIRARPPRLPRPRPRPFIMPRP, -0.507. With RRIRMRPPRLPRPRPRPHKSPRP, the “shrunken log2 fold change” value was determined as 0.223. RRIRPRPPRLPRPRPRPQEFPRP: the “shrunken log2 fold change” value amounted to 0.0774. For RRIRWRPPRLPRPRPRPGSGPRP, the “shrunken log2 fold change” value came out at 0.497.

Turning to RRIRVRPPRLPRPRPRPIFSPRP, the “shrunken log2 fold change” value was -0.628. For RRIRDRPPRLPRPRPRPTVAPRP, the “shrunken log2 fold change” value was found to be 1.14.

As for RRIRRRPPRLPRPRPRPALKPRP, the “shrunken log2 fold change” value came out at 0.366.
